Measured values reported in patent EP4810515A1 (Shanghai Haiju Biological Technology Co., Ltd., dated 2026).
Positions count from the first letter of the chain named. One block for each binder: values may come before it.

Key:
[1] = target: T1, human GDF15 recombinant protein (ACRO, GD5-H5149) (human, UniProt Q99988 197-308); assay: cell-based or functional assay
T1 sequence (looked up): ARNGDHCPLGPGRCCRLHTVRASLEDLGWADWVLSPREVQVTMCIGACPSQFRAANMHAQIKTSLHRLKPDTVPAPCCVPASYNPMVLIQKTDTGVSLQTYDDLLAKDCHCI

[2] = target: T2, GDF15 protein (R&D, 8146-GD) (UniProt Q99988 197-308); assay: SPR Biacore T200, antibody captured by anti-hFc on CM5, GDF15 as analyte, 1:1 model
T2 construct: analyte of the SPR assay
T2 sequence (looked up): T1 sequence (looked up)

- IC50, reporter gene cell strain (GFRAL/RET) [1]: 80 pM
- Kd [2]: 0.0134 nM
- koff [2]: 0.000192 s⁻¹
- kon [2]: 1.43e+07 M⁻¹ s⁻¹
B1: G2-H1-hz2-hIgG1(LALAGA, -K) (antibody, V domains shown)
VH: QVQLQESGPGLVKPSETLSLTCTFSGFSLSTYGIGVGWIRQPPGKGLEWIAHIWWNNNKYFNTALKSRLTISKDTSKNQVSLKLSSVTAADTAVYYCARMGYDIMDYWGQGTLVTVSS
VL: DIVMTQSPSSLSTSVGDRVTITCKASQDVNTAVAWYQQKPGKSPKFLIYSSSYRYTGVPDRFSGSGSGTDFTFTISSVQPEDFAVYYCQQHYSTPWTFGGGTKVEIKR
notes: humanized from G2-CH1

- IC50, reporter gene cell strain (GFRAL/RET) [1]: 62 pM
- Kd [2]: 0.0211 nM
- koff [2]: 0.000297 s⁻¹
- kon [2]: 1.41e+07 M⁻¹ s⁻¹
B2: G2-H1-hz13-hIgG1(LALAGA, -K) (antibody, V domains shown)
VH: QVTLLESGGGLVQPGGSLRLSCSFSGFSLSTYGIGVGWIRQAPGKGLEWLAHIWWNNNKYFNTALKSRLTISKDTSKNTVYLQMNSVRAEDTAVYYCARMGYDIMDYWGQGTTVTVSS
VL: B1 VL with V3Q, S43A, V78L, G100Q
notes: humanized from G2-CH1

- IC50, reporter gene cell strain (GFRAL/RET) [1]: 62 pM
- Kd [2]: 0.0178 nM
- koff [2]: 0.000273 s⁻¹
- kon [2]: 1.53e+07 M⁻¹ s⁻¹
B3: G2-H1-hz8-hIgG1(LALAGA, -K) (antibody, V domains shown)
VH: B1 VH with Q3T, T23S, I50L, V94T, L113S
VL: B1 VL with S9A, S10T, V15P, D17E, T22S, K42Q, K45R, P80S
notes: humanized from G2-CH1

- IC50, reporter gene cell strain (GFRAL/RET) [1]: 63 pM
- Kd [2]: 0.0105 nM
- koff [2]: 0.000146 s⁻¹
- kon [2]: 1.39e+07 M⁻¹ s⁻¹
B4: G2-H1-hz1-hIgG1(LALAGA, -K) (antibody, V domains shown)
VH: B1 VH
VL: B1 VL with V3Q, S43A, V78L, G100Q
notes: humanized from G2-CH1

- IC50, reporter gene cell strain (GFRAL/RET) [1]: 85 pM
- Kd [2]: 0.0107 nM
- koff [2]: 0.00015 s⁻¹
- kon [2]: 1.4e+07 M⁻¹ s⁻¹
B5: G2-H1-hz14-hIgG1(LALAGA, -K) (antibody, V domains shown)
VH: B2 VH
VL: B1 VL
notes: humanized from G2-CH1

- IC50, reporter gene cell strain (GFRAL/RET) [1]: 71 pM
- Kd [2]: 0.00993 nM
- koff [2]: 0.000183 s⁻¹
- kon [2]: 1.84e+07 M⁻¹ s⁻¹
B6: G2-H1-hz4-hIgG1(LALAGA, -K) (antibody, V domains shown)
VH: B1 VH
VL: B1 VL with S9A, S10T, V15P, D17E, T22S, K42Q, K45R, P80S
notes: humanized from G2-CH1

- IC50, reporter gene cell strain (GFRAL/RET) [1]: 73 pM
- Kd [2]: 0.0151 nM
- koff [2]: 0.000221 s⁻¹
- kon [2]: 1.46e+07 M⁻¹ s⁻¹
B7: G2-H1-hz6-hIgG1(LALAGA, -K) (antibody, V domains shown)
VH: B1 VH with Q3T, T23S, I50L, V94T, L113S
VL: B1 VL
notes: humanized from G2-CH1

- IC50, reporter gene cell strain (GFRAL/RET) [1]: 69 pM
- Kd [2]: 0.022 nM
- koff [2]: 0.00017 s⁻¹
- kon [2]: 7.75e+06 M⁻¹ s⁻¹
B8: G2-H8-H1L1-hIgG1(LALAGA,-K)(gsm) (antibody, V domains shown)
VH: QITLKESGPTLVKPTQTLTLTCTFSGFSLSTYGIGVGWIRQPPGKALEWLAHIWWNDNKYYNTALKSRLTITKDTSKNQVVLTMTNMDPVDTATYYCARLAYDYVDSWGQGTLVTVSS
VL: DIVMTQTPLSLSVTPGQPASISCKSSKSLLHSEGITYLYWYLQKPGQSPQLLIYQMSNLVSGVPDRFSGSGSGTDFTLKISRVEAEDVGVYYCAQNLELPPTFGQGTKLEIKR
notes: humanized from G2-CH8-LP3; also called G2-H8-H1L1-hIgG1(gsm); G2-H8-H1L1-hIgG1 (gsm)(LALAGA,-K)

- IC50, reporter gene cell strain (GFRAL/RET) [1]: 53 pM
- Kd [2]: 0.0143 nM
- koff [2]: 0.000127 s⁻¹
- kon [2]: 8.9e+06 M⁻¹ s⁻¹
B9: G2-H8-H2L2-hIgG1(LALAGA,-K) (antibody, V domains shown)
VH: B8 VH with I2V, T10A, A46G, T72S, L113T, V114L
VL: B8 VL with K24R, G69S
notes: humanized from G2-CH8-LP3

- IC50, reporter gene cell strain (GFRAL/RET) [1]: 77 pM
- Kd [2]: 0.00923 nM
- koff [2]: 0.000115 s⁻¹
- kon [2]: 1.25e+07 M⁻¹ s⁻¹
B10: G2-H1-hz15-hIgG1(LALAGA, -K) (antibody, V domains shown)
VH: B2 VH
VL: DIVMTQSPATLSTSPGERATLSCKASQDVNTAVAWYQQKPGQAPRFLIYSSSYRYTGVPARFSGSGSGTEFTFTISSLQSEDFAVYYCQQHYSTPWTFGGGTKVEIKR
notes: humanized from G2-CH1
